Assay: soluble on expression in E. coli; label from the status in PepcDB or PDB records

Sequence | soluble on expression in E. coli
MELLCPAGNLASLKSALQAGADAVYLGLKDDTNARSFAGLNFTPAKLQEAAELTHQRGKKIFLTLNTFPKPNEEHRWYQAIDLAAKIGVDALIVADLSLLDYAHRQYPHIPLHLSVQASATNLGALSFYKEAFNVSRVVLPRVLSMKQVRDLAKVSPVDLEVFAFGSLCIMAEGRCHLSSYVTGQSPNTGGSCSPAKHVRWQEQGQDRLTWLNEVLIDKSGLDEQMGYPVVCKGRYLTQEDDKPQYLLESPTSLNTLSLLPELAKAGIVSLKIEGRQRSPAYVEQVTKVWRQAIDTYLNHPDKFQTQAHWEQALAKVSEGQITTLGAYERNWQ | not soluble
MELLLYSLDNEGPIRFIQITDTHLVEAADGHLLGLETQNSLEHVLSSVQSENDQFDFFVVSGDISQDGSLSSYQRLHESLAPFNVPSFWFPGNHDEMSNMKVVCQDTEHLVNIIRTPHWQLVLLNSQVEGAVFGNLGDDQFELLERALTERPDLHTLISLHHHPIPMESNWMDKIGVKNGDKLMAMARKYPKVKCILWGHVHQDSDRMVDGIRMLSTPSTCVQFMPKSKDFNIDMIAPGYRRLQLNPDGSIETEMSRVEGIEFEVDLSVKGY | soluble
MELSSPGVGSGLDVKNLVDAIVTAEITPSQVRHDKQLNSVNTELSALGQLKSYLTNLQTSLAKLSSLSQFYTMKSTISDPNYFSATLGTGATKNTYQIEIQKLAQQHS | not soluble
MELWGRMLWALLSGPGRRGSTRGWAFSSWQPQPPLAGLSSAIELVSHWTGVFEKRGIPEARESSEYIVAHVLGAKTFQSLRPALWTQPLTSQQLQCIRELSSRRLQRMPVQYILGEWDFQGLSLRMVPPVFIPRPETEELVEWVLEEVAQRSHAVGSPGSPLILEVGCGSGAISLSLLSQLPQSRVIAVDKREAAISLTHENAQRLRLQDRIWIIHLDMTSERSWTHLPWGPMDLIVSNPPYVFHQDMEQLAPEIRSYEDPAALDGGEEGMDIITHILALAPRLLKDSGSIFLEVDPRHPELVSSWLQSRPDLYLNLVAVRRDFCGRPRFLHIRRSGP | soluble
MEMAYDFAETKDTAIIFIYRPPVGDIQISPVLEGPRRLRLWNDITISLYKDVYPDIRLIESRSRVEVHLRKVEMVRWGGINGRPADKPQDDGKETMVEDSGDEENPSVMDLFSKIYQRSGDDVRRAMEKSFYESEGTVLSTDWDQVKSKKITRED | not soluble
MEMDKAVTGVALDLDHAQIGLIGIPDQPGIAAKVFQALAERGIAVDMIIQGVPGHDPSRQQMAFTVKKDFAQEALEALEPVLAEIGGEAILRPDIAKVSIVGVGLASTPEVPAKMFQAVASTGANIEMIATSEVRISVIIPAEYAEAALRAVHQAFELDKAHHHHHH | soluble
MEMKQISETTLKITISMDDLEERGMELKDFLIPQEKTEEFFYSVMDELDLPDNFKDSGMLSFRVTPRKDRLDVFVTKSEINKDINLEDLAEFGDMSQMTPEDFFKSLEQSMREKGDVKAHEKLEKIEEIMEDVVEATLANQSEAADPSTNHESEPLDYVHYVLDFSTITEAVAFAKTIDFSIEASELYKGSNCYHMTILLDVQQQPSYFANVMYARLIEHANPGSKTRAYLQEHGLQLMLDGAVEQLQKIELG | not soluble
MEMMPNIEELRKMRKNLGISQKDLAKVTGVSQSYIARLEKGTINPTYSKIKAIYEYLTKSSEKASTMVLTCDRIMTRNVVVCRSDESILNALNIMRDKGFSQLPVVNEENKVIGTIAENNINDMLLKGMSIDSLRGLTVRRVMSDVLPQVDRNTPVNIIYQLLKYSNAVLVIEAGNLVGIITKADILKTVAGMI | not soluble
MENELQDFPEPNYNVHAFYYVWYGSPQFDGKYVHWDHPLLPHWDPKVASSYSTGRHQPPEDIGANFYPALGPYSSRDPAVLEEHMRQLRMAAVGVLAVSWYPRSMKDDNGEEIDSLLPLILDAADKYQLKVLYNLYVFKNVICINKYV | not soluble
MENNNSPTNAAEHNQKIDPRNYDDVLSVAASIREQVGEDVARADLGIICGSGLGPIGDTVQDATILPYSKIPGFPTTHVVGHKGNMIFGKLGGKKVVCLQGRFHPYEHNMDLALCTLPVRVMHQLGIKIMIVSNAAGGINAVLRHGDLMLIKDHIFLPALAGFSPLVGCNDPRFGARFVSVHDAYDKQLRQLAIDVGRRSDMTLYEGVYVMSGGPQYESPAEVSLFKTVGADALGMSTCHEVTVARQCGIKVLGFSLITNIANLDADASVEVSHEEVMDIAQQAGERASRFVSDIITEITL | not soluble
MENQVEVMTYAHLKEIMQALEANEAITEDTKVFIDTGWDSVQEVAPDAVSIEKVAKFTVADVLTNESFAGYSLEEKAEKMNAEGDLETAIIIRNLY | not soluble
MENRRIVIITGANSGIGKEAAQRFANEGDHVIMACRNIAFSRKVQHDIIAASGNDHVDLLELDVSSFASIRTFCTTFNSQYKRLDILIHNAAYFNHGEPYRLSPDGIELTFATNVFGPYLLTSLLRDRLKQSEDPRILHAGSNIIKHFFDPKQTFDLDLLQGNHGTKSYSVYKMYCQSKMALMLLTFQMAEVFADDGIKVNALQINGAKMSKRTIQKVKPWWRPIAWGQNLFFPPPSYMADKYFTICTSDKYKQTTGKLFNDKLEIMEPSPTHYPGFFKQMKLLLGSNVYPAYENTNIREKLWALCKELVGELEHHHHHH | not soluble
MENTVLNLDSDVIHACEAIFQPIRLVYTHAQTPDVSGVSMLEKIQQILPQIAKNAESAEQLRRVPDENIKLLKEIGLHRAFQPKVYGGLEMSLPDFANCIVTLAGACAGTAWAFSLLCTHSHQIAMFSKQLQDEIWLKDPDATASSSIAPFGKVEEVEGGIILNGDYGWSSGCDHAEYAIVGFNRFDADGNKIYSFGVIPRSDYEIVDNWYAQAIKSSGSKMLKLVNVFIPEYRISKAKDMMEGKSAGFGLYPDSKIFYTPYRPYFASGFSAVSLGIAERMIEAFKEKQRNRVRAYTGANVGLATPALMRIAESTHQVAAARALLEKTWEDHRIHGLNHQYPNKETLAFWRTNQAYAVKMCIEAVDRLMAAAGATSFMDNSELQRLFRDAHMTGAHAYTDYDVCAQILGRELMGMEPDPTMV | soluble
MEPEEERIRYSQRLRGTMRRRYEDDGISDDEIEGKRTFDLEEKLHTNKYNANFVTFMEGKDFNVEYIQRGGLRDPLIFKNSDGLGIKMPDPDFTVNDVKMCVGSRRMVDVMDVNTQKGIEMTMAQWTRYYETPEEEREKLYNVISLEFSHTRLENMVQRPSTVDFIDWVDNMWPRHLKESQTESTNAILEMQYPKVQKYCLMSVRGCYTDFHVDFGGTSVWYHIHQGGKVFWLIPPTAHNLELYENWLLSGSQGDIFLGDRVSDCQRIELKQGYTFVIPSGWIHAVYTPTDTLVFGGNFLHSFNIPMQLKIYNIEDRTRVPNKFRYPFYYEMCWYVLERYVYCITNRSHLTKEFQKESLSMDLELNGLESGNGDEEAVDREPRQVHLTHFELEGLRCLVDKLESLPLHKKCVPTGIEDEDALIADVKILLEELANSDPKLALTGVPIVQWP | soluble
MEPLLSLKSVSKSYDDLNILDDIDIDIESGYFYTLLGPSGCGKTTILKLIAGFEYPDSGEVIYQNKPIGNLPPNKRKVNTVFQDYALFPHLNVYDNIAFGLKLKKLSKTEIDQKVTEALKLVKLSGYEKRNINEMSGGQKQRVAIARAIVNEPEILLLDESLSALDLKLRTEMQYELRELQSRLGITFIFVTHDQEEALALSDFLFVLKDGKIQQFGTPTDIYDEPVNRFVADFIGESNIVEGRMVRDYVVNIYGQDFECVDMGIPENKKVEVVIRPEDISLIKAEEGLFKATVDSMLFRGVHYEICCIDNKGYEWVIQTTKKAEVGSEVGLYFDPEAIHIMVPGETEEEFDKRIESYEEVDNA | not soluble
MEQKNEEIEAIDDRMIAGVEVNFQKMRRSKHKTEERLTSGQVDAFAQKLFEAYPDGSLEGFLDIDDVQKKKLDEQRQEFTGDYPIVQPVLDGSRELMVVLRYNPLYHAVEIYDPVQIYDSEGIPMVVKPIREQIVNLFAHLFLDKIRLIFDIEYEQQADKCSDRLRAVGAMMAIALGYNPAAMDYNLKGISKLVKKILNSESPDFKKFEKADIGTLNAKYSGQNRVTMFIGNNGETLLATRNVYGLEKHALKTGLGKMDKNGHVVERESFLEEEFHDETIYKQFHAPDLGMGKPDNVNAIKLFHVDYRDYDLQNANGLERPIYLEPYKPVQSDCFAVPNLTSTLDRVSSNGELLKYVNEVMQSITPYTPYHLHAQSVEYLRYTPRHMNMCINPLQAIRAWALLANMADGKTNTDLLNFVGKYTYPGQLENNKMMNDDILNLHFEAEKLFEGCVRVFTELPKHLWHNEDIRIIQNSYYGGKSLRGAMQHHCFATDPDGLYSCHRINEEVALSTHGAVNFVVPENHAPNWRASIALVSAMDCTFYWKTYAKPKLMDNFNFVNEQYGASKCVGYFAHADFKFFEDIYCLESRIPGVRLYITFESPDKMDSKKEFMSKLHEKIQTCGDWHTTFDSPVFLPLCTTSTPLSLYAHAKASGLSRIFSSEKSELLEMKSIPARGGARQFSTLYDHYHKTVFEVHGSDPKVENFMRKRPRRMFDQFSPARAHQCVDDSMAELHGKYQMKNPTKEFNNKMNINPLLTYRENHLNHDEPSFEWLHENHEFDLKDPKALMFNKPFYYVMTRALVGKNQLIVCAGYFNNTTWVKQQ | not soluble
MEQQFILRLHESIKHVVDLGNSTIDICDDRSVVLTHNNKKYPGIVVRLPCIVESQKTMDSRQHYKVADISTLVVVYPDDSFDFDKEREMYELSGLSPPLKYVKARRFRKKSSKIEYVEEIEKKVNDLLEKDMKARSVEVVAKEEKETSDDLDVLAAEIENKLVDNAEAHKEEVQSRPDEIGEKKEEQPRNEEIERLEKGIEEKRRQMESALNPILQKRFESQLNVLLKELEDVKKGMEME | soluble
MERCGWVSQDPLYIAYHDNEWGVPETDSKKLFEMICLEGQQAGLSWITVLKKRENYRACFHQFDPVKVAAMQEEDVERLVQDAGIIRHRGKIQAIIGNARAYLQMEQNGEPFVDFVWSFVNHQPQVTQATTLSEIPTSTSASDALSKALKKRGFKFVGTTICYSFMQACGLVNDHVVGCCCYPGNKP | not soluble
MERGEIWLVSLDPTAGHEQQGTRPVLIVTPAAFNRVTRLPVVVPVTSGGNFARTAGFAVSLDGVGIRTTGVVRCDQPRTIDMKARGGKRLERVPETIMNEVLGRLSTILT | soluble
MERILLVLDDTGRGEIAFQKLKKLAEDGLRGEVYILYIREMEVPPFVPEEKELAAYHRLMTQSMKKLEGFKNQLEKAGLKVSDVSVVFGKYADRLLLVEKQIKPDLIVVGFKGGLLKRVIGGFFGKDPCEVLLKKSKASLLICRG | not soluble
MERLHLSWEDLLRLVRRLAEALSGEPFDLVLGVARGGLIPTALLAQALGARNILTAAVMFYEGEEALPEPVFLQFPPDVLLFGKRVLVVDDVWDSGRTAFAVKARVRRAGGVPVVATLHFKPGRNRVPDRPDFYAEETAAWVVYPWALEAWPKG | soluble
MERVAIFIDGSNLYKGLVQHLGSDYRLNFVEFITLLTAGRKLLRAYYYNAPLPPEDPAAKAHQSFLNYLKRVPYVTVRLGRLERRADGFVEKGVDIQIAVDMLRLAFVNAYDIAVLVSGDGDFAEVVRVVQDLGKQVENTTFHALSSHRLAQQADHFYPLDDFPWERLRAQVSPASPEEEA | soluble
MERVLITGGAGFIGSHLVDDLQQDYDVYVLDNYRTGKRENIKSLADDHVFELDIREYDAVEQIMKTYQFDYVIHLAALVSVAESVEKPILSQEINVVATLRLLEIIKKYNNHIKRFIFASSAAVYGDLPDLPKSDQSLILPLSPYAIDKYYGERTTLNYCSLYNIPTAVVKFFNVFGPRQDPKSQYSGVISKMFDSFEHNKPFTFFGDGLQTRDFVYVYDVVQSVRLIMEHKDAIGHGYNIGTGTFTNLLEVYRIIGELYGKSVEHEFKEARKGDIKHSYADISNLKALGFVPKYTVETGLKDYFNFEVDNIEEVTAKEVEMS | not soluble
